Target: T1, endogenous MGR (Mus musculus (C2C12 myoblasts)) (UniProt D2EAC2)
T1 sequence: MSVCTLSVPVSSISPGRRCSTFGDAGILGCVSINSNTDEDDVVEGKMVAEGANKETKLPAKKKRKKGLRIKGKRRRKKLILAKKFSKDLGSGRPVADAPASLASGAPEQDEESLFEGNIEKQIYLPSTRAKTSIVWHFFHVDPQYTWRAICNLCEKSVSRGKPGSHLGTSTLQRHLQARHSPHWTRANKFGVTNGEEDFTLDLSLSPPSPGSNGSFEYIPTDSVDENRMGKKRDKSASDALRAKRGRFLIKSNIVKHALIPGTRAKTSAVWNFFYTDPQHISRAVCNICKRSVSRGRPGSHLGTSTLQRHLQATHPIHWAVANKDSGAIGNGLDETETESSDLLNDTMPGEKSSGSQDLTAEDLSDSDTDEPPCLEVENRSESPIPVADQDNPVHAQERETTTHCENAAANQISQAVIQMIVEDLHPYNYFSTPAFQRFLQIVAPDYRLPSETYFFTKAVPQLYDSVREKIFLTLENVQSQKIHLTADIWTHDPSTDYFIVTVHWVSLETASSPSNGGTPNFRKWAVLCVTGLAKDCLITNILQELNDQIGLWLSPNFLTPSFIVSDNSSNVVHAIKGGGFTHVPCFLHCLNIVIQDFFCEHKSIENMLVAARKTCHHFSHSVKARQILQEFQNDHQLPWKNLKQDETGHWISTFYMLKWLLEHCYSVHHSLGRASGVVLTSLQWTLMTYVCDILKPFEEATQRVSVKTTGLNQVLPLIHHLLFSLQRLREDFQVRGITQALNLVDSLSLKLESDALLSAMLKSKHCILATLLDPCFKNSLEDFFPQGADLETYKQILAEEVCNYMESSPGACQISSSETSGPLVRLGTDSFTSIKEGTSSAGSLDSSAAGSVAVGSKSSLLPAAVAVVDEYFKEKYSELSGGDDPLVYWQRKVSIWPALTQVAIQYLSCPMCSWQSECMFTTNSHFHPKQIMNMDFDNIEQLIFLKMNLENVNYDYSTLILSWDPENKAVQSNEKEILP
Assay: pull-down, SILAC MS

With “TTCAAAACTGCAGGATCCTTCGCCTAGGCTCGCAGCGCGGGAGCGA / AATCGCTCCCGCGCTGCGAGCCTAGGCGAAGGATCCTGCAGTTTTG [porcine IGF2 q (pulldown)]” as the sequence, how does the binding signal (SILAC ratio q/Q) read?
The binding signal (SILAC ratio q/Q) was 5.5.
